This is an account of results in patent US20250264455A1 (HELMHOLTZ ZENTRUM M NCHEN DEUTSCHES FORSCHUNGSZENTRUM F R …, published 2025).

Data set [1] deals with T1, QtEnc-SpyTag(003) (Bacillus thermotolerans (Quasibacillus …, UniProt A0A0F5HPP7 1-282)).
T1 construct: Q. thermotolerans encapsulin shell monomer with C-terminal SpyTag003; T=4 shell of 240 subunits; expressed in HEK cells; also called QtEnc decorated with SpyTags
In words: TEM and CN-PAGE after co-expression in HEK cells (SpyTag003/SpyCatcher003 isopeptide).

In data set [2] the target is T2, LifeAct-emFPv4.
T2 construct: also called emFPv4 hub
In words: Clear Native PAGE of co-expressing HEK293T lysate.

Data set [3] deals with T1, QtEnc-SpyTag(003). In words: TEM, CN-PAGE shift and Western blot after co-expression in HEK cells (SpyTag003/SpyCatcher003 isopeptide).
Data set [4] concerns the molecule itself. In words: native 12% Tris-Glycine gel of purified protein with BODIPY FL C16.

B1: BM3h-SpyCatcher003 (other)
chain: MTIKEMPQPKTFGELKNLPLLNTDKPVQALMKIADELGEIFKFEAPGRVTRYLSSQRLIKEACDESRFDKNLSQALKFVRDFAGDGLFTSWTHEKNWKKAHNILLPSFSQQAMKGYHAMMVDIAVQLVQKWERLNADEHIEVPEDMTRLTLDTIGLCGFNYRFNSFYRDQPHPFITSMVRALDEAMNKLQRANPDDPAYDENKRQFQEDIKVMNDLVDKIIADRKASGEQSDDLLTHMLNGKDPETGEPLDDENIRYQIITFLIAGHETTSGLLSFALYFLVKNPHVLQKAAEEAARVLVDPVPSYKQVKQLKYVGMVLNEALRLWPTAPAFSLYAKEDTVLGGEYPLEKGDELMVLIPQLHRDKTIWGDDVEEFRPERFENPSAIPQHAFKPFGNGQRACIGQQFALHEATLVLGMMLKHFDFEDHTNYELDIKETLTLKPEGFVVKAKSKKIPLPPPPRTGPPPPRVTTLSGLSGEQGPSGDMTTEEDSATHIKFSKRDEDGRELAGATMELRDSSGKTISTWISDGHVKDFYLYPGKYTFVETAAPDGYEVATPIEFTVNEDGQVTVDGEATEGDAHT
notes: Heme domain of cytochrome P450 BM3 fused to SpyCatcher003; also called SpyCatcher-Bm3h
In the case of B1, the binding result in data set [1] is recorded as “binds”.

B2: BFabp-αMoon-Tag (other)
chain: MEVQLVESGGGLVQPGGSLRLSCAASGSISSVDVMSWYRQAPGKQRELVAFITDRGRTNYKVSVKGRFTISRDNSKNMVYLQMNSLKPEDTADYLCRAESRTSWSSPSPLDVWGRGTQVTVSSGGTGGSVEAFCATWKLTNSQNFDEYMKALGVGFATRQVGNVTKPTVIISQEGDKVVIRTLSTFKNTEISFQLGEEFDETTADDRNCKSVVSLDGDKLVHIQKWDGKETNFVREIKDGKMVMTLTFGDVVAVRHYEKA
notes: also called B-Fabp Anti-Moon-Tag
For the molecule B2, the binding result in data set [2] is “binds”.

B3: B-FABP-SpyCatcher003 (other)
chain: MVEAFCATWKLTNSQNFDEYMKALGVGFATRQVGNVTKPTVIISQEGDKVVIRTLSTFKNTEISFQLGEEFDETTADDRNCKSVVSLDGDKLVHIQKWDGKETNFVREIKDGKMVMTLTFGDVVAVRHYEKAPPPPRTGPPPPRVTTLSGLSGEQGPSGDMTTEEDSATHIKFSKRDEDGRELAGATMELRDSSGKTISTWISDGHVKDFYLYPGKYTFVETAAPDGYEVATPIEFTVNEDGQVTVDGEATEGDAHT
notes: also called B-FABP fused via SpyCatcher003
For B3, the binding result in data set [3] is on record as “binds”.

B4: BFabp-FLAG (other)
chain: VEAFCATWKLTNSQNFDEYMKALGVGFATRQVGNVTKPTVIISQEGDKVVIRTLSTFKNTEISFQLGEEFDETTADDRNCKSVVSLDGDKLVHIQKWDGKETNFVREIKDGKMVMTLTFGDVVAVRHYEKAGSGDYKDDDDK
notes: Purified over the FLAG tag
Turning to B4, the binding result in data set [4] is given as “binds”.
